Reference: paper PMC8699147
Several values for one entry are separate records, joined by “and”; a condition that tells them apart may be missing. Equal entries are not always repeated.

Target: T1, alpha-fetoprotein, P02771
T1 chain: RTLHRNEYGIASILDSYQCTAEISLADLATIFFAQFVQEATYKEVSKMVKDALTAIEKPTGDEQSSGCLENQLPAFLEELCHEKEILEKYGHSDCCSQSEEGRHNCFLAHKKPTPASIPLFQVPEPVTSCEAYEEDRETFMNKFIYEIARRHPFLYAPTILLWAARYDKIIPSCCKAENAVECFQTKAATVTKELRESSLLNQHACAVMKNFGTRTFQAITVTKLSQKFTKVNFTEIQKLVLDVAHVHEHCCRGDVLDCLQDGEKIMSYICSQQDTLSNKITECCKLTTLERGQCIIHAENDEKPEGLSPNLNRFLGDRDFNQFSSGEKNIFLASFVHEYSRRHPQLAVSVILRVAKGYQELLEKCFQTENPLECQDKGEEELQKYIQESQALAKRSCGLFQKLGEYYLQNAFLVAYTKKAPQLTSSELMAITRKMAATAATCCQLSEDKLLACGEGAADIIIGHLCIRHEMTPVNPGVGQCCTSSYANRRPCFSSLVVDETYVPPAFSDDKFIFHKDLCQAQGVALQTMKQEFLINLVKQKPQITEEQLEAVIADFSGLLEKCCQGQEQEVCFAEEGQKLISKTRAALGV
Experiment: native gel or EMSA; native 10% PAGE without SDS of calibrator S1 of VIDAS AFP, 150 V, running buffer 0.025 M TRIS-Base pH 8.3, 0.192 M glycine, Coomassie Blue staining
Settings: remark: other sources report otherwise

- stoichiometry N: 2 and 3 and 4
B1: alpha-fetoprotein, P02771 19-609 (natural protein)
chain: T1 chain
